The text below walks through data of patent US20250382602.

Residue numbers refer to the chain shown, from its start.

Conditions in all cases: nanopore translocation; background mutations not given
The target in series [1] is T1, Dda 1993 K177N K177N (Enterobacteria phage T4) (UniProt P32270).
T1 sequence: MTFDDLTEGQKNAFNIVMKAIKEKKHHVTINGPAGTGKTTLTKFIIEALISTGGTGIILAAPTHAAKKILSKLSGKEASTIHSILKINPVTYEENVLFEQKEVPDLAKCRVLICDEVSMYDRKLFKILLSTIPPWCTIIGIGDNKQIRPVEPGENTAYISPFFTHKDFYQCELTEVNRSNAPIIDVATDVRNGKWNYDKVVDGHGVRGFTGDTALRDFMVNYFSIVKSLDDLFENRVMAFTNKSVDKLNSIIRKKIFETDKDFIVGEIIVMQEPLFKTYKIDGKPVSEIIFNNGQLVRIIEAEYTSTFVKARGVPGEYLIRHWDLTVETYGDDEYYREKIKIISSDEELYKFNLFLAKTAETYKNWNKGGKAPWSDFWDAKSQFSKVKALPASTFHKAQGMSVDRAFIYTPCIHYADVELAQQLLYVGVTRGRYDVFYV

Series [2] has as its target T2, Dda 1993 K177V K177V (Enterobacteria phage T4) (UniProt P32270).
T2 sequence: T1 sequence with N177V

Series [3] addresses T3, Dda 1993 K177R K177R (Enterobacteria phage T4) (UniProt P32270).
T3 sequence: T1 sequence with N177R

In series [4] the target is T4, Dda 1993 K177M K177M (Enterobacteria phage T4) (UniProt P32270).
T4 sequence: T1 sequence with N177M

The target of series [5] is T5, Dda 1993 K177S K177S (Enterobacteria phage T4) (UniProt P32270).
T5 sequence: T1 sequence with N177S

Series [6] addresses T6, Dda 1993 K177L K177L (Enterobacteria phage T4) (UniProt P32270).
T6 sequence: T1 sequence with N177L

On to “barcoded 3.6 kb DNA analyte ligated to sequencing Y adaptor”, for which the activity (bps speed delta vs control) in series [1] was 2.4; in series [2], -16; in series [3], 21.7; in series [4], 48.3; in series [5] it was -31.1; in series [6], 51.4.
